Measurements as given in patent publication US20200172619A1.
Where two headings read alike, the source gives them in different places.

Experiments:
[1] = molecular target: TNFR1 on the surface of cells (HT1080, HeLa, Kym-1) (human) (UniProt P19438); assay: cell-based or functional assay
[2] = molecular target: TNFR1 on the surface of cells (HT1080, HeLa, Kym-1) (human) (UniProt P19438); assay: cell-based or functional assay; remark: listed apart in the source
[3] = molecular target: human TNFR1-Fc fusion protein (human) (UniProt P19438); assay: ELISA, immobilized human TNFR1-Fc
[4] = molecular target: human TNFR1-Fc fusion protein (human) (UniProt P19438); assay: ELISA, human TNFR1-Fc

Chain of TNFR1 on the surface of cells (HT1080, HeLa, Kym-1) (human) (P19438 30-455): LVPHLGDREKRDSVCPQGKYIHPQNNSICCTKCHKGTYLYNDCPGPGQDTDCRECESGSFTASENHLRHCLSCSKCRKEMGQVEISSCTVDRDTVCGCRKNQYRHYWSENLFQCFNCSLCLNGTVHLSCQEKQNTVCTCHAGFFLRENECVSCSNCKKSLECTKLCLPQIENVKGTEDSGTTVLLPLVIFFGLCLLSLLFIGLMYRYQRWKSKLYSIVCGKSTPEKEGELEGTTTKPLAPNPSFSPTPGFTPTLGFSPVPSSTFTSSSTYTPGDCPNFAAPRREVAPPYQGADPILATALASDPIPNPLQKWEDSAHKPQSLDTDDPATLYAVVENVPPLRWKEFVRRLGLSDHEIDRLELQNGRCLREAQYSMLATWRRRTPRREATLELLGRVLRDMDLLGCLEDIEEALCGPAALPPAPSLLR
Chain of human TNFR1-Fc fusion protein (human) (P19438 30-211): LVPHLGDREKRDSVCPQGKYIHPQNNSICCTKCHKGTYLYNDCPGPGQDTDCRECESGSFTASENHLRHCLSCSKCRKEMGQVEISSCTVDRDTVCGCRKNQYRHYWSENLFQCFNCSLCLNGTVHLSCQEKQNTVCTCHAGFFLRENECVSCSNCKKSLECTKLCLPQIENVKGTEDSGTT

ATROSAB (antibody)
IC50, Cell death induction [nM] (Kym-1 cells, 0.01 nM TNF) [1]: 64.4 nM
IC50, IL-6 [nM] (HeLa cells, 0.1 nM TNF) [1]: 165 nM
IC50, IL-8 [nM] (HT1080 cells, 0.1 nM TNF) [1]: 84.1 nM
IL-8 Inhibition IC50 [1]: 97.8 nM
IL-8 Inhibition IC50 [2]: 136 nM
EC50 [3]: 0.4 nM
EC50 [4]: 0.09 nM
